Results taken from US20230059489A1 (Pfizer, published 2023).

T1: mouse FLT3 (mFlt3) (mouse (printed as mFlt3), UniProt Q00342 28-544, limits assumed)
T1 construct: Construct not described
T1 sequence (looked up): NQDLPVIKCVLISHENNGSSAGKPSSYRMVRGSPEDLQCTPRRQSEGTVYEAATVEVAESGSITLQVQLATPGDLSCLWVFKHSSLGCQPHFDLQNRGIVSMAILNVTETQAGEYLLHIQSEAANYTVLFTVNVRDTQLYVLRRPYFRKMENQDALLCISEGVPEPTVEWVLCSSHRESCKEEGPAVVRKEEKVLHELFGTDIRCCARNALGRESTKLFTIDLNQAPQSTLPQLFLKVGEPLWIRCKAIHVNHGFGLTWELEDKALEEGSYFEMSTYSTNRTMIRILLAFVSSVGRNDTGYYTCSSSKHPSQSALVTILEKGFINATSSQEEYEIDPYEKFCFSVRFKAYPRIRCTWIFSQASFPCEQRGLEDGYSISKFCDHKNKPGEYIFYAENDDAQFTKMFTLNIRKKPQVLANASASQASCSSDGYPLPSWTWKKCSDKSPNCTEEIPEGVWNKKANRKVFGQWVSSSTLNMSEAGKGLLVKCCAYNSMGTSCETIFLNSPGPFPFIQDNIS

T2: human FLT3 (hFLT3) (human, UniProt P36888 27-543)
T2 construct: also called huFlt3; Fms-Like Tyrosine Kinase 3
T2 sequence (looked up): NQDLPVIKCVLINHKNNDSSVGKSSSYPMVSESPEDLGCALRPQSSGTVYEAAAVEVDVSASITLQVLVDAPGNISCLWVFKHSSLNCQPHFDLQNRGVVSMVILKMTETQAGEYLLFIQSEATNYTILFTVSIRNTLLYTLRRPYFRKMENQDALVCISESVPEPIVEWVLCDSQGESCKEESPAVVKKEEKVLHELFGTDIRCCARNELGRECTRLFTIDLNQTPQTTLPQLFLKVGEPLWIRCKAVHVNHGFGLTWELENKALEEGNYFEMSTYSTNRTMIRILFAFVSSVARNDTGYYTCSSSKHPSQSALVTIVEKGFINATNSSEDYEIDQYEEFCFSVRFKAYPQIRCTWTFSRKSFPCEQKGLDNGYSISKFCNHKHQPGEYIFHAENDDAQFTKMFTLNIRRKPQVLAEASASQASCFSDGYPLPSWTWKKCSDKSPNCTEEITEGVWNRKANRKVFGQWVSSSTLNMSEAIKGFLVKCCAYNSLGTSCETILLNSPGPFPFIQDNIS


How the values were obtained:
mouse FLT3 (mFlt3) = molecular target: T1, mouse FLT3 (mFlt3); experiment: SPR, Table 6, IgG format, mFlt3 column; set-up for mFlt3 not described
human FLT3 (hFLT3) = molecular target: T2, human FLT3 (hFLT3); experiment: SPR (Biacore T200), 37 C; IgG captured on anti-human Fc, hFLT3 as analyte
Method: All experiments were performed on a Biacore T200 surface Plasmon resonance biosensor (GE Lifesciences, Piscataway N.J.).
The sensor chip preparation was performed at 25° C. with a running buffer of 10 mM HEPES, 150 mM NaCl, 0.05% (v/v) Tween-20, pH 7.4. An anti-human Fc sensor chip was made by activating all flow cells of a Biacore CM4 sensor chip with a 1:1 (v/v) mixture of 400 mM EDC and 100 mM NHS for 7 minutes, at a flow rate of 10 μL/min. An anti-human Fc reagent (Goat Anti-Human IgG Fc, Southern Biotech Catalog #2081-01) was diluted to 30 μg/mL in 10 mM Sodium Acetate pH 4.5 and injected on all flow cells for 7 minutes at 20 μL/min. All flow cells were blocked with 100 mM ethylenediamine in 150 mM Borate buffer pH 8.5 for 7 minutes at 10 μL/min.
The experiments were performed at 37° C. using a running buffer of 10 mM HEPES, 150 mM NaCl, 0.05% (v/v) Tween-20, pH 7.4, 1 mg/mL BSA. FLT3 antibodies were captured from undiluted supernatants onto downstream flow cells (flow cells 2, 3 and 4) at a flow rate of 10 μL/min for 1 minute. Different antibodies were captured on each flow cell. Flow cell 1 was used as a reference surface. Following capture of FLT3 antibodies, analyte (buffer, hFLT3) was injected at 30 μL/min on all flow cells for two minutes. After the analyte injection, dissociation was monitored for 10 minutes followed by regeneration of all flow cells with three 1-minute injections of 75 mM Phosphoric Acid. For each captured FLT3 antibody, the following analyte injections were performed: buffer, 11 nM hFLT3, 33 nM hFLT3, 100 nM hFLT3 and 300 nM hFLT3. Buffer cycles were collected for each captured FLT3 antibody for double-referencing purposes (double-referencing as described in Myszka, D. G. Improving biosensor analysis. J. Mol. Recognit. 12, 279-284 (1999)). The double-referenced sensorgrams were fit globally to a simple 1:1 Langmuir with mass transport binding model.

Row | Kd (mouse FLT3 (mFlt3)) | Kd (human FLT3 (hFLT3)) | koff (human FLT3 (hFLT3)) | kon (human FLT3 (hFLT3)) | t1/2 (human FLT3 (hFLT3)) | Binder
1 | 13.8 nM | 12 nM | 0.0013 s⁻¹ | 110000 M⁻¹ s⁻¹ | 8.9 min | P7F9 (IgG format) (antibody, V domains shown, IgG format, captured by anti-human Fc) VH: EVQLLESGGGLVQPGGSLRLSCAASGFTFSSYAMSWVRQAPGKGLEWVSAIGGSGGSTYYADSVKGRFTISRDNSKNTLYLQMNSLRAEDTAMYYCARDYYAFSDPAYGGMDVWGQGTLVTVSS VL: NFMLTQPHSVSESPGKTVTISCTRSSGSIASNYVQWYQQKPGQAPVLVVYDDSDRPSGIPERFSGSNSGNTATLTISRVEAGDEADYYCQVWDSSSDHWVFGGGTKLTVL
2 | 0.9 nM | 2 nM | 0.0018 s⁻¹ | 990000 M⁻¹ s⁻¹ | 6.6 min | P7H3 (IgG format) (antibody, V domains shown, IgG format, captured by anti-human Fc) VH: EVQLLESGGGLVQPGGSLRLSCAASGFTFSSYAMHWVRQAPGKGLEWVSAISGSGGSTYYADSVKGRFTISRDNSKNTLYLQMNSLRAEDTAVYYCARGTRWWWGDAFDHWGQGTLVTVSS VL: QSVLTQPPSVSVAPGKTARITCGGNNIGSKSVHWYQQKPGQAPVLVIYYDSDRPSGIPERFSGSNSGNTATLTISRVEAGDEADYYCQVWDSSTAWVFGGGTKLTVL
3 | 19.3 nM | 102 nM | 0.01 s⁻¹ | 98000 M⁻¹ s⁻¹ | 1.2 min | P5A3 (IgG format) (antibody, V domains shown, IgG format, captured by anti-human Fc) VH: QVQLVQSGAEVKKPGSSVKVSCKASGGTFSSYYIGWVRQAPGQGLEWMGGIIPWFGTANYAQKFQGRVTITADKSTNTAYMELSSLRSEDTAVYYCAADHHDSPSGYTSGGFDVWGQGTLVTVSS VL: QSALTQPASVSGSPGQSITISCTGTSSDVGGYNYVSWYQQHPGKAPKLMIYEVSKRPSGVPDRFSGSKSGNTASLTVSGLQAEDEADYYCSSYAGSNTVVFGGGTKLTVL
4 | 1.5 nM | 11 nM | 0.00047 s⁻¹ | 42000 M⁻¹ s⁻¹ | 24.4 min | P9B5 (IgG format) (antibody, V domains shown, IgG format, captured by anti-human Fc) VH: EVQLLESGGGLVQPGGSLRLSCAASGFIFASYAMSWVRQAPGKGLEWVSEISSSGGSTTYADSVKGRFTISRDNSKNTLYLQMNSLRAEDTAVYYCARDRVMAGLGYDPFDYWGQGTLVTVSS VL: not shown
